Measured values reported in IntAct's records for PubMed 16628218.

B1: Beta-chimaerin (Homo sapiens), P52757 (parent)
chain: MAASSNSSLSGSSVSSDAEEYQPPIWKSYLYQLQQEAPRPKRIICPREVENRPKYYGREFHGIISREQADELLGGVEGAYILRESQRQPGCYTLALRFGNQTLNYRLFHDGKHFVGEKRFESIHDLVTDGLITLYIETKAAEYISKMTTNPIYEHIGYATLLREKVSRRLSRSKNEPRKTNVTHEEHTAVEKISSLVRRAALTHNDNHFNYEKTHNFKVHTFRGPHWCEYCANFMWGLIAQGVRCSDCGLNVHKQCSKHVPNDCQPDLKRIKKVYCCDLTTLVKAHNTQRPMVVDICIREIEARGLKSEGLYRVSGFTEHIEDVKMAFDRDGEKADISANVYPDINIITGALKLYFRDLPIPVITYDTYSKFIDAAKISNADERLEAVHEVLMLLPPAHYETLRYLMIHLKKVTMNEKDNFMNAENLGIVFGPTLMRPPEDSTLTTLHDMRYQKLIVQILIENEDVLF

Variants of: B1
Conditions: with rac1_human RAC1, P63000

Row | Variant | effect of a mutation on the interaction
1 | C264A | disrupting interaction
2 | Q32A | increasing interaction
